Reference: patent US20110190477A1 (G2 INFLAMMATION, published 2011)

Tests used:
human C5a receptor [1] = biological target: T1, human C5a receptor (human, UniProt P21730 1-350); experiment: flow cytometry of bound hAb-Q (anti-hIgG-FITC) on human neutrophils, post-chemotaxis lower chamber
T1 construct: On human neutrophils, L1.2/hC5aR transfectants or neutrophils of hC5aR knock-in mice; also called hC5aR; C5aR1
T1 chain: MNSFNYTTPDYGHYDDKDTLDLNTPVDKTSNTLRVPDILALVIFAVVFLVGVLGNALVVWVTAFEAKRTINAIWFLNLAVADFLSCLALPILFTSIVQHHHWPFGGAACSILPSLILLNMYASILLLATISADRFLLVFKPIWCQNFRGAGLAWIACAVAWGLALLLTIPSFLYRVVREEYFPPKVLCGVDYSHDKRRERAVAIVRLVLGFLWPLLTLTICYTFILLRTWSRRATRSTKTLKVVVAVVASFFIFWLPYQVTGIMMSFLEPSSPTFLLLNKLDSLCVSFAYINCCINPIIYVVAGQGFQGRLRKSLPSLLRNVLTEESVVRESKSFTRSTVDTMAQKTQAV
Description: The FACSCalibur flow cytometer was set up with compensation parameters established for channel FL-1. Samples were acquired to exclude dead cells and debris. Neutrophils were identified based on FSC and SSC. The level of bound hAb-Q (anti-hIgG-FITC) or free C5aR (hAb-Q-FITC) was determined by determining the FITC (FL-1) mean fluorescence intensity (MFI) of the neutrophils in a sample.
Four experiments were carried out. Briefly, purified neutrophils isolated from the venous blood of a healthy volunteer were preincubated for 10 min with hAb-Q at concentrations ranging from 0.001 to 100 μg/ml. A small aliquot of this mix was taken to determine the amount of antibody bound receptor (% receptor occupancy) and the remainder was placed in the upper chamber of a transwell plate. C5a (10 nM) was placed in the lower chamber. After 30 min incubation, the number of cells that had migrated into the lower chamber was determined using FACS. The amount of bound antibody on the neutrophils in both the lower and upper chambers at the end of migration was also determined, using FITC-labelled anti-hIgG and flow cytometry. The level of free receptor (no bound antibody) was determined in one experiment by incubating the neutrophils with FITC-labelled hAb-Q before and after migration.

[2] = biological target: T2, peptide 23 (33 mer, full length of the 2nd extracellular loop of hC5aR) (human, N-terminal biotin); experiment: peptide ELISA, biotin peptide on streptavidin plate
T2 construct: also called peptide no; 23
T2 peptide: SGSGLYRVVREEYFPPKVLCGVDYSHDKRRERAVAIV

human C5a receptor [3] = biological target: T1, human C5a receptor; experiment: PK/PD model (NONMEM) fitted to serum concentration and receptor occupancy in hC5aR transgenic mice, pharmacology study column
Description: NONMEM VI (non-linear mixed effects modelling software) with first order conditional estimation (FOCE) was used for modelling, and S-PLUS® 8.0 (Insigthful) was used for graphics and data handling. Evaluation of—and discrimination between—intermediate models was based on objective function values and standard graphical evaluation methods. In terms of objective function value, changes in this value were assumed to be chi-squared distributed (for nested models), and criteria for expanding the model were defined and used accordingly.
Toxicokinetics from the toxicology study in transgenic mice and PK/PD data from the pharmacology study was integrated to assess the relationship between pharmacokinetics and occupancy. […] This is consistent with other studies, observing higher clearance for high doses, due to saturation of the FcRN receptor (Hansen and Balthasar, 2002).

B1: humanized anti-C5aR antibody hAb-Q (antibody, human IgG4 S228P, kappa)
light: DVVMTQSPLSLPVTLGEPASISCRSSQSLVHSNGNTYLHWYLQKPGQSPQLLIYKVSNRFSGVPDRFSGSGSGTDFTLKISRVEAEDVGVYFCSQSTLVPLTFGQGTKLEIKRTVAAPSVFIFPPSDEQLKSGTASVVCLLNNFYPREAKVQWKVDNALQSGNSQESVTEQDSKDSTYSLSSTLTLSKADYEKHKVYACEVTHQGLSSPVTKSFNRGEC
heavy: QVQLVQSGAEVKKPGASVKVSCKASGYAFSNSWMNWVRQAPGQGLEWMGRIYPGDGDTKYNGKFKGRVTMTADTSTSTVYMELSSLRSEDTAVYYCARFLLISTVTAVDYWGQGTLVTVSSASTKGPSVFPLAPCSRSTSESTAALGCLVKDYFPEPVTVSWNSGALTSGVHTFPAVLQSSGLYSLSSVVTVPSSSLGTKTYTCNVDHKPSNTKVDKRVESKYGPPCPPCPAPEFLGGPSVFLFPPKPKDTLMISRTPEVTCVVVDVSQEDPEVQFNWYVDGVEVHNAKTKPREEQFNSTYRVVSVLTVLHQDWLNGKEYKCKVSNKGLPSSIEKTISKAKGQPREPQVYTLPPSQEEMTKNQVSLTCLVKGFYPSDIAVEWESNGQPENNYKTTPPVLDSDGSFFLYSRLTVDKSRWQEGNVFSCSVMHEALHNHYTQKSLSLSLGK
notes: IgG4 with the Ser228Pro mutation; also called antibody Q; anti-C5aR ab
**Q.** Which EC50 (human C5a receptor [1]) does the source give for B1 here?
**A.** 1.1 µg/mL

**Q.** Does B1 bind [2]?
**A.** binds

**Q.** And the Kd (human C5a receptor [3])?
**A.** 0.175 µg/mL
